Source: the nanobody polyreactivity screen of Harvey et al. (2022)

Assay: yeast display, Sf9 membrane polyspecificity reagent, FACS + sequencing; frameworks hold sequencing errors
Summary of the method: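 Polyreactivity labels are assigned by the sorting gate from which each nanobody was recovered. The gates were low and high (top ~1%), set on anti-HA fluorescence for expression and streptavidin fluorescence for reagent binding. Before sorting, galactose-induced (36–48 hours) yeast display cells were stained for 1 hour at 4 °C with 10% biotinylated, detergent-solubilized Sf9 membrane reagent.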

| Sequence | polyreactivity (PSR sort gate) |
| --- | --- |
| QVQLVESGGGLDQAGGSLRLSCAASGRIFGYYAMGWYRQAPGKERELVAAISRSGGSTNYADSVKGRFTISRDTAKNTVYLQMNSLKPEDTAVYYCAVRYPYYSPFGGYDYWGQGTQVTVSS | high polyreactivity |
| QVQHVESGGGLVQAGGSLRLSCAAYGSIFGWYGMGWYRQAPGKERELVAAITRGGSTYYADSVKGRFTISRDNAKNTVYLQMISLKPEDTAVYYCAKRSGQQYGGYGYWGQGTHVTVSS | low polyreactivity |
| QVQLVESWGGLVQAGGSLRLSCAASGSIFAINAMGWYRQAPGTERELVAAIRSGGRTYYADSVKGRFTISRDNAKNTVYLQMNSLKPEDTAVYYCNAGGKWIGSDYCGQGTQVTVSS | high polyreactivity |
| QVQLQESGGGLVQAGGSLRLSCAASGTITVLYKMGWFRQAPGKEREFVASINYGTSTYYADSVKGRFTVSRDSAKNTVYLQMNSRKPEDTAVYYCAAAYRWQDVYRYWGQGTQVTVSS | low polyreactivity |
| QVQLVESGGGLVQAGGSLRLSCAASGSISGYYAMGWYRQAPGKERELVASIRYTGARTYYADSVMGRFTISRDTAKNNVYLQMNSLKPEDTAVYYCAADVKRDRVWGGDYWGQGTQVTVSS | low polyreactivity |
| QVQLVESGGGLVQAGGSLRLSCAASGITFYHYAMGWYRQAPGKERELVAAISSDDNTNYADSVKGRFTISRDNAKNTVYLQMNSLKPEDTAVYYCAAAPWYFYDQYFNAISFGYYYWGQGTQVTVSS | high polyreactivity |
| QVQLVESGGGLVQAGGSLRLSCAASGRTFLSYAMGWYRQAPGKDRELVAAIRRGSSTYYADSVKGRFTISRDNAKNTVYLQMNSLKPEDTAVYYCAARGRYRIGPGRYGKRYDYWGQGTQVTVSS | high polyreactivity |
| QVQHVESGGGLVQAGGSLRLSCAASGLIFSWYAKGWYRQAPGKERELDASITIGGNTNYAYSVKGRFTISRDNAKNTVYLQMNSLKPEDTAVYYCDAQTFWYGYGGGDYWGQGTQVTVSS | low polyreactivity |
| QVQLVESGGGLVQAGGSLRLSCAASGRTFVTYGMGWYRQAPGKERELVATIRSGTTTNYADSVKGRFTISRDNAKNTVYLQMNSLKPEDTAVYYCNARGLRASSRRYYYWGQGTQVTVSS | high polyreactivity |
| QVQLVESGGGLVQAGGSLRLSCAASGSTRYNAMGWYRQAPGKERELVAAINTSGGSTRYADSVKGRFTISRDNAKNPVYLQMNSLKPEDTAVYYCNAGNSIPGVQKVIVHGLDYWGQGTQVTVSS | high polyreactivity |
| QVQLVESGGGLVQAGGSLRLSCAASGSTFYVNAMGWYRQAPGKERELVAAITSGGSTKYADSVKGRYTISCDNAKNTVYLQMNSLKPEDTAVDDCAAPRGRALSKVRYDDEYWGQGTQVTVSS | high polyreactivity |
| QVHLVESGGGLVQAGGSLRLSCAASGRIFNSNAMGWYIQEPGKERELAAAISKRGGSTFYADSVKGRFTISRDNGKNTVFLQMKSLKPEYSAVYYCNARRLSTGFDRYDYWGQGTQVTGSS | high polyreactivity |
| QVQRVESGGGLVQAGGSLRLSCAASGFTFTDYAMGWYRQAPGKERELVAAITIGGGRTYYADSVKGRFTISRDNAKNTVYLQMNSLKPEDTAVYYCNARYQVPYGYWGQGTQVTVSS | low polyreactivity |
| QVQLVESGGGLVQAGGSLRLSCAASGSTFWYYAMGWYRQAPGKERELVAAITSVDSTYYADSVKGRFTISRDNANNTVYLQMNSLKPEDTAVYYCAADLPWEDGYYFYSGYTEYDYWGQGTQVTVSS | low polyreactivity |
| QVQLVESGGGLVQAGGSLRLSCAASGRIFYTYAMGWYRQAPGKERELVSSITWSDGNTYYADSVKGRFTISRDNAKNTDYLQMNSLKPEDTAVYYCAAGDSFYVYLWPTYDYWGQGTQVTVSS | low polyreactivity |
| QVQLVESGGGLVQAGRSLRLICAASGSTFVIYDMVWYRQAPGKERELVAAISYSGGSTYYADSVKGRFKISRDNAKNTVYLEMNSLKPEDTAVYYCNAGVLVLLYSYLQSELEYWGQGTQVTVSS | low polyreactivity |

| Sequence | polyreactivity (PSR sort gate) |
| --- | --- |
| QVQLVDSGGGLVQAGGSLRLSCAASGSIFDANAMGWYRQAPGKERELVAAITFDSGSTHYADSVKGRFTISRDNAQNTVYLQMNSLKPEDTAVYYCAVRDFNSDYDYWGQGTQVTVSS | low polyreactivity |
| QVQLVESGGGLVQAGGSLRLSCAAYGITFAPYAMGWYRQAPGKERELVAGINTGGSTYYADSVKGRFTISRDNAKNTVYLQMNSLKPEDTAVYYCATESYPADHDIPGSDYWGQGTQVTVSS | low polyreactivity |
| QVQLVESGGGLVQAGGSLRLSCAASGRTCAYNAMGWYRQAPGKERELVAAITDSDGNTYYADSVKGRFTISRDNAKNTVYLQMNSLKPEDTAVYYCAADYIILDHVTRGFGYEYWGQGTQVTVSS | low polyreactivity |
| QVQLVESGGGLVQAGGSLRLSCAASGSIFGSNAMGWYRQAPGKERELVAAISSRAGRTYYADSVKGRFTISRDNAKNTVYLQMNSLKPEDTAVYYCAALYWVYRNRWLYDYWGLGTQVTVSS | high polyreactivity |
| QVQLVESGGGLVQAGGSLRLSCAASGFTFYKYTMGWYRQAPGKERELVAAIRSSGGRTYYADSVKGRFTISRDNAKNTVYLQMNSLKPEDTAVYYCNAVVDRLIFWQFDYWGQGTQVTVSS | high polyreactivity |
| QVQLVDSGGGLVQAGGSLRLSCAASGSTFAFYAMVWSRQAPGKERELVAANSSNGVSTYYADSVKGRFTISRDNAKNTVYLQMKSLKPEDTAVYYCARDVYASPRLYTSRYNYWGQGTQVTVSS | low polyreactivity |
| QVQLVESGGGLVQAGGSLRLSCAASGIIFVKYAMGWYRQAPGKERELVAAINWRTGRTYYADSVKGRFTISRDNAKNTVYLQMNSLKPEDTAVYYCAADVGIVIRLGRTEESGYYWGQGTQVTVSS | low polyreactivity |
| QVQHVESGGGLVQAGGSLRLSCAASGSIFRRNAMGRYRQAPGKVRELVAGISGGGSTYYADSVKGRFTISRDNAKNTVYLQMNSMKPEDTAVYYCATDKHYRSAGFDYWGQGTQVTVSS | low polyreactivity |
| QVQLVESGGGLVQAGVSLRLSCAASGRTFGYYTMGWSRQAPGKERELVAGISSAGSTNYADSVKGRFTISRDNAKNTVYFQMNSLKPADTAVYDCAARTYKVIQNNSWETYYYWGQGTQVTVSS | high polyreactivity |
| QVHLVETGGGLVQAGGSLRLSCAASGSTFSFNAMGWYRQAPGKERELVAAISTSGGDTYYADSVKGRFTISRDNAKNTVYLQMNSLKPEDTAVYYCAAEYQVPGGSWMDYWGQGTQVTVSS | high polyreactivity |
| QVQLVVSGVGLVQAGGSLRLSCAASGRIFSYYAMGWYRQAPGKEREFVATNSGSGGSTYYADSVKGRFTISRDNAKNTVYLEMNSLKPEDTAVYYCKARSYSYWSNWRNAGSYDYWGQGTQVTVSS | high polyreactivity |
| QVQLVESGGGLVQAGGSLRLSCAASGITFGYYTMGWYRQAPGKEREFDAAISSTGGTYYADSVKGRFTISRDNAQNTVYLQMNSLKPEDTAVYYCAATFIQVVVNVQLYDYDYWGQGTQVTVSS | low polyreactivity |
| QVQLVESGGGLVHAGGSLRLSCAASGGTFDVNAMGWYRQAPGKERELVATISGGGSTNYADSVNGRFTISRDNAKNSVYLQINSLKPEDTAVYYCAAESEPIRNRERDYWGQGTQVSVSS | low polyreactivity |
| QVQLVESGGGLVQAGGSLRLSCAASGFTFLPYVMGWYRQAPGKERELVAAMSSSGGSTYYADSVKGRFTISRDNAKNTVYLQMNSLKPEDTAVYYCAKDIGVRRRDFEDYEYWGQGTQVTVSS | low polyreactivity |
| QVQLVESGGGLVQAGGSLRLSCAASGFIFVYNAMGWYRPAPGKERELVAAINGSGDSTYYADSVKGRFTISRDNAKNTVYLQMNSLKPEDTAVYYCAARYKVPLSRYILVLYDYWGQGTQVTVSS | low polyreactivity |
